The target in this experiment is EBVgp350/220 wild type (full length, BLLF1, EBV strain B95-8) (Epstein-Barr virus strain B95-8) (UniProt P03200). Kind of experiment: cell-based or functional assay.
UniProt P03200, sequence (P03200 whole entry): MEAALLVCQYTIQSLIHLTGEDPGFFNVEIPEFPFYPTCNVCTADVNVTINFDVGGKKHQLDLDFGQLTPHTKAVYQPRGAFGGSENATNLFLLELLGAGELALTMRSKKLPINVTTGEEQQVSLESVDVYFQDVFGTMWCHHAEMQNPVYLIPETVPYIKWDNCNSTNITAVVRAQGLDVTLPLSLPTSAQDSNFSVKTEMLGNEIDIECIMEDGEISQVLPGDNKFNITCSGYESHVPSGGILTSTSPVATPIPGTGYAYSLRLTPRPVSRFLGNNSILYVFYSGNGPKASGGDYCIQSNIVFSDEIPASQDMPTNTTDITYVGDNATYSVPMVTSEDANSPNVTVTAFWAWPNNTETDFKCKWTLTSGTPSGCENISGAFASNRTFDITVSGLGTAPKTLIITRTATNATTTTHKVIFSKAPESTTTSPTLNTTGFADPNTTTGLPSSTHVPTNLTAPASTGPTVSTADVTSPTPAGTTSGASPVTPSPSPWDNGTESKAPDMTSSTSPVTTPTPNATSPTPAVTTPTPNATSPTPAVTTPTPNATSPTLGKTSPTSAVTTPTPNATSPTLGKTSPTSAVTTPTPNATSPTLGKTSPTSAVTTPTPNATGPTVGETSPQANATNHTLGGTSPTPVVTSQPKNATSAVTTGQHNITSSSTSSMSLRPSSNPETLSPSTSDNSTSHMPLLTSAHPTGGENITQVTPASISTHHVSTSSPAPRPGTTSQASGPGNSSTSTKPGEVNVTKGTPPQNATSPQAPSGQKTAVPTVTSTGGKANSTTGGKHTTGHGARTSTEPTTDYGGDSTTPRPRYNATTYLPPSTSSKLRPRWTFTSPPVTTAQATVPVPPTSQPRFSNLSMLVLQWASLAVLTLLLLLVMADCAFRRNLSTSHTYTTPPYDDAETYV

“monoclonal antibody mAb-2L10 anti-gp350/220” had a percent fluorescent (EGFP+) Raji cells after infection with EGFP-EBV pre-incubated with the antibody of 27% and a percent of EGFP+ Raji cells post-infection of 25%.

In turn, “monoclonal antibody mAb-72A1 anti-gp350/220” registered a percent fluorescent (EGFP+) Raji cells after infection with EGFP-EBV pre-incubated with the antibody of 1%.

The values above are taken from patent US20200038505A1.
